Experimental data taken from US20210070881A1 (DENALI THERAPEUTICS, published 2021).

What follows are binders tested against T1, recombinant BACE1 (BACE1 extracellular domain, R&D Systems Cat#931-AS) (UniProt P56817 22-457) (assay: SPR Biacore).
T1 construct: extracellular domain; also called BACE1 extracellular domain protein
T1 sequence (P56817 22-457): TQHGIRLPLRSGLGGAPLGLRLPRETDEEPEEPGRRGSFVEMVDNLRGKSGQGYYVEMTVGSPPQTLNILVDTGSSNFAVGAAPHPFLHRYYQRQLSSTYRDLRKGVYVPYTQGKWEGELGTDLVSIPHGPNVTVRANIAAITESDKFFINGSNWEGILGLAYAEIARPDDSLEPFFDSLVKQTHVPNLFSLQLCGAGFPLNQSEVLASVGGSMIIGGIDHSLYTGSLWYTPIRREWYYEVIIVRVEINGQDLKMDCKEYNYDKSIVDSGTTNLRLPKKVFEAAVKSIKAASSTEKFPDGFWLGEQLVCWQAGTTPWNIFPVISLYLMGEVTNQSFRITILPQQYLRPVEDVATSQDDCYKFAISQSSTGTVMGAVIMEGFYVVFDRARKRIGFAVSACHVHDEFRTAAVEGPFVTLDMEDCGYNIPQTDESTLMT

Binder	Kd
hu2H8v1 (antibody, V domains shown, humanized; also called hu2H8_HC1 + hu2H8_LC1) VH: QVQLVQSGAEVKKPGASVKVSCKASGYTFTNFWIHWVRQAPGQGLEWMGMIDPSDSYTKYNQKFKARVTMTRDTSTSTTYMELSSLRSEDTAVYYCARSGVAFPYWGQGTLVTVSS VL: DIQMTQSPSSLSASVGDRVTITCKASQDVGRNVAWYQQKPGKAPKLLIYSASHRYSGVPSRFSGSGSGTDFTLTISSLQPEDFATYYCQQYNSYPYTFGQGTKVEIK	135 nM
hu2H8v2 (antibody, V domains shown, humanized; also called hu2H8_HC2 + hu2H8_LC1) VH: QVQLVQSGAEVKKPGASVKVSCKASGYTFTNFWIHWLRQAPGQGLEWMGMIDPSDSYTKYNQKFKARVTMTRDTSTSTTYMELSSLRSEDTAVYYCARSGVAFPYWGQGTLVTVSS VL: DIQMTQSPSSLSASVGDRVTITCKASQDVGRNVAWYQQKPGKAPKLLIYSASHRYSGVPSRFSGSGSGTDFTLTISSLQPEDFATYYCQQYNSYPYTFGQGTKVEIK	185 nM
hu2H8v3 (antibody, V domains shown, humanized; also called hu2H8_HC3 + hu2H8_LC1) VH: QVQLVQSGAEVKKPGASVKVSCKASGYTFTNFWIHWLRQAPGQGLEWMGMIDPSDSYTKYNQKFKARVTMTVDTSTSTTYMELSSLRSEDTAVYYCARSGVAFPYWGQGTLVTVSS VL: DIQMTQSPSSLSASVGDRVTITCKASQDVGRNVAWYQQKPGKAPKLLIYSASHRYSGVPSRFSGSGSGTDFTLTISSLQPEDFATYYCQQYNSYPYTFGQGTKVEIK	172 nM

Next, values leading:

Kd	Binder
169 nM	hu2H8v4 (antibody, V domains shown, humanized; also called hu2H8_HC5 + hu2H8_LC1) VH: QVQLVQSGAEVKKPGASVKVSCKASGYTFTNFWIHWVRQAPGQGLEWMGMIDPSDSYTKYNQKFKARATLTRDTSTSTVYMELSSLRSEDTAVYYCARSGVAFPYWGQGTLVTVSS VL: DIQMTQSPSSLSASVGDRVTITCKASQDVGRNVAWYQQKPGKAPKLLIYSASHRYSGVPSRFSGSGSGTDFTLTISSLQPEDFATYYCQQYNSYPYTFGQGTKVEIK
96.3 nM	hu2H8v5 (antibody, V domains shown, humanized; also called hu2H8_HC6 + hu2H8_LC1) VH: QVQLVQSGAEVKKPGASVKVSCKASGYTFTNFWIHWVRQAPGQGLEWMGMIDPSDSYTKYNQKFKARATLTVDTSTSTVYMELSSLRSEDTAVYYCARSGVAFPYWGQGTLVTVSS VL: DIQMTQSPSSLSASVGDRVTITCKASQDVGRNVAWYQQKPGKAPKLLIYSASHRYSGVPSRFSGSGSGTDFTLTISSLQPEDFATYYCQQYNSYPYTFGQGTKVEIK
109 nM	hu2H8v6 (antibody, V domains shown, humanized; also called hu2H8_HC7 + hu2H8_LC1) VH: QVQLVQSGAEVKKPGASVKVSCKASGYTFTNFWIHWLRQAPGQGLEWMGMIDPSDSYTKYNQKFKARATLTVDTSTSTTYMELSSLRSEDTAVYYCARSGVAFPYWGQGTLVTVSS VL: DIQMTQSPSSLSASVGDRVTITCKASQDVGRNVAWYQQKPGKAPKLLIYSASHRYSGVPSRFSGSGSGTDFTLTISSLQPEDFATYYCQQYNSYPYTFGQGTKVEIK
150 nM	hu2H8v7 (antibody, V domains shown, humanized; also called hu2H8_HC1 + hu2H8_LC2) VH: QVQLVQSGAEVKKPGASVKVSCKASGYTFTNFWIHWVRQAPGQGLEWMGMIDPSDSYTKYNQKFKARVTMTRDTSTSTTYMELSSLRSEDTAVYYCARSGVAFPYWGQGTLVTVSS VL: DIQMTQSPSSLSASVGDRVTITCKASQDVGRNVAWYQQKPGKSPKLLIYSASHRYSGVPSRFSGSGSGTDFTLTISSLQPEDFATYYCQQYNSYPYTFGQGTKVEIK
155 nM	hu2H8v8 (antibody, V domains shown, humanized; also called hu2H8_HC2 + hu2H8_LC2) VH: QVQLVQSGAEVKKPGASVKVSCKASGYTFTNFWIHWLRQAPGQGLEWMGMIDPSDSYTKYNQKFKARVTMTRDTSTSTTYMELSSLRSEDTAVYYCARSGVAFPYWGQGTLVTVSS VL: DIQMTQSPSSLSASVGDRVTITCKASQDVGRNVAWYQQKPGKSPKLLIYSASHRYSGVPSRFSGSGSGTDFTLTISSLQPEDFATYYCQQYNSYPYTFGQGTKVEIK
130 nM	hu2H8v9 (antibody, V domains shown, humanized; also called hu2H8_HC3 + hu2H8_LC2) VH: QVQLVQSGAEVKKPGASVKVSCKASGYTFTNFWIHWLRQAPGQGLEWMGMIDPSDSYTKYNQKFKARVTMTVDTSTSTTYMELSSLRSEDTAVYYCARSGVAFPYWGQGTLVTVSS VL: DIQMTQSPSSLSASVGDRVTITCKASQDVGRNVAWYQQKPGKSPKLLIYSASHRYSGVPSRFSGSGSGTDFTLTISSLQPEDFATYYCQQYNSYPYTFGQGTKVEIK
160 nM	hu2H8v10 (antibody, V domains shown, humanized) VH: QVQLVQSGAEVKKPGASVKVSCKASGYTFTNFWIHWVRQAPGQGLEWMGMIDPSDSYTKYNQKFKARATLTRDTSTSTVYMELSSLRSEDTAVYYCARSGVAFPYWGQGTLVTVSS VL: DIQMTQSPSSLSASVGDRVTITCKASQDVGRNVAWYQQKPGKSPKLLIYSASHRYSGVPSRFSGSGSGTDFTLTISSLQPEDFATYYCQQYNSYPYTFGQGTKVEIK

Target: T1, recombinant BACE1 (BACE1 extracellular …)
Test: SPR Biacore
Remark: another data set of the same source

Binder	Kd	koff	kon
2H8.12 (antibody, human IgG1, V domains shown, human IgG1/kappa; also called 2H8_HCvar6 + 2H8_LCvar2) VH: EVQLQQSGAELVRPGTSVKLSCKASGYTFNNYWMHWVKQRPGQGLEWIGMIDPSDDDIKNNQKFKGKATLTVDTSSSTAYMQLISLTSEDSAVYYCARSGVALPYWGQGTLVTVSA VL: DIVMTQSQKFMSTSVGDRVSVTCKASQNVGTNVAWYQQKPGQSPKALIYSASHRYSGVPDRFTGSGSGTDFTLTISNVQSEDLAEYFCQQYNSYMYTFGGGTKLEIK	171 nM	0.00166 s⁻¹	9680 M⁻¹ s⁻¹
2H8.18 (antibody, human IgG1, V domains shown, human IgG1/kappa; also called 2H8_HCvar6 + 2H8_LCvar3) VH: EVQLQQSGAELVRPGTSVKLSCKASGYTFNNYWMHWVKQRPGQGLEWIGMIDPSDDDIKNNQKFKGKATLTVDTSSSTAYMQLISLTSEDSAVYYCARSGVALPYWGQGTLVTVSA VL: DIQMTQSQKFMSTSIGDRVSVTCKASQNVGTNVAWYQQKPGQSPKSLIYSASHWYSGVPDRFTGSGSGTDFTLTISNVQSEDLAEYFCQQYNSYPYTFGGGTKLEIK	32.4 nM	0.00039 s⁻¹	12000 M⁻¹ s⁻¹
2H8.24 (antibody, human IgG1, V domains shown, human IgG1/kappa; also called 2H8_HCvar6 + 2H8_LCvar4) VH: EVQLQQSGAELVRPGTSVKLSCKASGYTFNNYWMHWVKQRPGQGLEWIGMIDPSDDDIKNNQKFKGKATLTVDTSSSTAYMQLISLTSEDSAVYYCARSGVALPYWGQGTLVTVSA VL: DIVMTQSQKFMSTSVGDRVSITCKASQNVGTNVAWYQQKPGQSPKALIYSASYRYSGVPDRFTGSGSGTDFTLTISNVQSEDLAEYFCQQYNSYPYTFGGGTKLEIK	183 nM	0.00243 s⁻¹	13300 M⁻¹ s⁻¹
2H8.36 (antibody, human IgG1, V domains shown, human IgG1/kappa; also called 2H8_HCvar6 + 2H8_LCvar6) VH: EVQLQQSGAELVRPGTSVKLSCKASGYTFNNYWMHWVKQRPGQGLEWIGMIDPSDDDIKNNQKFKGKATLTVDTSSSTAYMQLISLTSEDSAVYYCARSGVALPYWGQGTLVTVSA VL: DIQMTQSQKFMSKSVGDRVSVTCKASQNVGSNVAWYQQKSGQSPKSLIYSASHRYSGVPDRFTGSGSGTDFTLTISNVQSEDLADYFCQQYNSYPYTFGGGTRLEIK	23.5 nM	0.000273 s⁻¹	11600 M⁻¹ s⁻¹
2H8.27 (antibody, human IgG1, V domains shown, human IgG1/kappa; also called 2H8_HCvar3 + 2H8_LCvar5) VH: EVQLQQSGAELVRPGTSVKLSCKASGYTFTSYWIHWVKQRPGQGLEWIGMIDPSDSYTKYNQKFKDKATLTVDTSSSTTYMHLSSLTSEDSAVYYCARSGVAFPYWGQRTLVTVSA VL: DIVMTQSQKFMSTSVGDRVSVTCKASQNVGTNVAWYQQKSGQSPKALIYSASHRYSGVPDRFTGSGSGTDFTLTISNVQSEDLAEYFCQQYNSYPYTFGGGTKLEIK	17 nM	0.00024 s⁻¹	14100 M⁻¹ s⁻¹
2H8.34 (antibody, human IgG1, V domains shown, human IgG1/kappa; also called 2H8_HCvar4 + 2H8_LCvar6) VH: EIQLQQSGTELVRPGTSVKLSCKASGYTFTNYWMHWVKQRPGQGLEWIGMIDPSAAYTNYNQNFKGKATLTVDTSSGTAYMQLSSLTSEDSAVYYCARSGVAFPYWGQGTTVTVSS VL: DIQMTQSQKFMSKSVGDRVSVTCKASQNVGSNVAWYQQKSGQSPKSLIYSASHRYSGVPDRFTGSGSGTDFTLTISNVQSEDLADYFCQQYNSYPYTFGGGTRLEIK	25.5 nM	0.000425 s⁻¹	16700 M⁻¹ s⁻¹
2H8.40 (antibody, human IgG1, V domains shown, human IgG1/kappa; also called 2H8_HCvar4 + 2H8_LCvar7) VH: EIQLQQSGTELVRPGTSVKLSCKASGYTFTNYWMHWVKQRPGQGLEWIGMIDPSAAYTNYNQNFKGKATLTVDTSSGTAYMQLSSLTSEDSAVYYCARSGVAFPYWGQGTTVTVSS VL: DILMTQSQKFMSTSVGDRVSVTCKASQNVGRNVAWYQQISGQSPKPLIYSASHRYSGVPDRFTGSGSGTDFTLTISNVQSEDLVEFFCQQYNSYPYTFGGGTKLEIK	19.1 nM	0.000456 s⁻¹	23900 M⁻¹ s⁻¹
2H8.09 (antibody, human IgG1, V domains shown, human IgG1/kappa; also called 2H8_HCvar3 + 2H8_LCvar2) VH: EVQLQQSGAELVRPGTSVKLSCKASGYTFTSYWIHWVKQRPGQGLEWIGMIDPSDSYTKYNQKFKDKATLTVDTSSSTTYMHLSSLTSEDSAVYYCARSGVAFPYWGQRTLVTVSA VL: DIVMTQSQKFMSTSVGDRVSVTCKASQNVGTNVAWYQQKPGQSPKALIYSASHRYSGVPDRFTGSGSGTDFTLTISNVQSEDLAEYFCQQYNSYMYTFGGGTKLEIK	18.3 nM	0.000228 s⁻¹	12500 M⁻¹ s⁻¹
2H8.15 (antibody, human IgG1, V domains shown, human IgG1/kappa; also called 2H8_HCvar3 + 2H8_LCvar3) VH: EVQLQQSGAELVRPGTSVKLSCKASGYTFTSYWIHWVKQRPGQGLEWIGMIDPSDSYTKYNQKFKDKATLTVDTSSSTTYMHLSSLTSEDSAVYYCARSGVAFPYWGQRTLVTVSA VL: DIQMTQSQKFMSTSIGDRVSVTCKASQNVGTNVAWYQQKPGQSPKSLIYSASHWYSGVPDRFTGSGSGTDFTLTISNVQSEDLAEYFCQQYNSYPYTFGGGTKLEIK	22.8 nM	0.000278 s⁻¹	12200 M⁻¹ s⁻¹
2H8.16 (antibody, human IgG1, V domains shown, human IgG1/kappa; also called 2H8_HCvar4 + 2H8_LCvar3) VH: EIQLQQSGTELVRPGTSVKLSCKASGYTFTNYWMHWVKQRPGQGLEWIGMIDPSAAYTNYNQNFKGKATLTVDTSSGTAYMQLSSLTSEDSAVYYCARSGVAFPYWGQGTTVTVSS VL: DIQMTQSQKFMSTSIGDRVSVTCKASQNVGTNVAWYQQKPGQSPKSLIYSASHWYSGVPDRFTGSGSGTDFTLTISNVQSEDLAEYFCQQYNSYPYTFGGGTKLEIK	37.8 nM	0.000631 s⁻¹	16700 M⁻¹ s⁻¹
2H8.21 (antibody, human IgG1, V domains shown, human IgG1/kappa; also called 2H8_HCvar3 + 2H8_LCvar4) VH: EVQLQQSGAELVRPGTSVKLSCKASGYTFTSYWIHWVKQRPGQGLEWIGMIDPSDSYTKYNQKFKDKATLTVDTSSSTTYMHLSSLTSEDSAVYYCARSGVAFPYWGQRTLVTVSA VL: DIVMTQSQKFMSTSVGDRVSITCKASQNVGTNVAWYQQKPGQSPKALIYSASYRYSGVPDRFTGSGSGTDFTLTISNVQSEDLAEYFCQQYNSYPYTFGGGTKLEIK	90.5 nM	0.00104 s⁻¹	11400 M⁻¹ s⁻¹
